Results as given in patent US20200339702A1 (ULTRAHUMAN THIRTEEN, published 2020).
Numbering of substitutions follows the chain as printed. Values belong to the binder of their own block, whether it stands above or below them.

What was measured:
[1] = target: T1, rhesus monkey ERBB3 His tag, monomeric (rhesus monkey (Macaca mulatta), UniProt P21860 20-643 (human entry), limits assumed); assay: SPR (Biacore), captured IgG, monomeric ERBB3-His analyte
T1 chain: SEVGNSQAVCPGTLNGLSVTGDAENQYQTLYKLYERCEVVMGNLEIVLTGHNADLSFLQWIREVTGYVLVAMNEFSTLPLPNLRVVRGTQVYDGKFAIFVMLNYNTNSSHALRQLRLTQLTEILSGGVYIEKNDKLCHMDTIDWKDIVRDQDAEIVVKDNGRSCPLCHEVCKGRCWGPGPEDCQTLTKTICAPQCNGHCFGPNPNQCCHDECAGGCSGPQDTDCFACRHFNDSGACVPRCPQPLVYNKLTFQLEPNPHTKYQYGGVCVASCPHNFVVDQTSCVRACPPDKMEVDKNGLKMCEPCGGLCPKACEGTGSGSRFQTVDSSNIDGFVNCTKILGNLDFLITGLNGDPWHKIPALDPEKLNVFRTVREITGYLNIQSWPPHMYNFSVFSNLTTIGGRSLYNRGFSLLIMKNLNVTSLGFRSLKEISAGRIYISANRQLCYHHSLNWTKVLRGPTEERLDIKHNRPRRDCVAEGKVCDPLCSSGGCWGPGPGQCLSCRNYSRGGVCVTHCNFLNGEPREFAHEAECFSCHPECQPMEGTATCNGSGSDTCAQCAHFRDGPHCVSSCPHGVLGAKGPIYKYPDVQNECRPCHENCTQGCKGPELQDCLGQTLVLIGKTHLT
Method: (§1) Affinity (KD) of purified IgGs was determined via SPR with antigen in-solution on a Biacore® 3000 (GE). A mouse anti-human antibody (CH1 specific) was immobilized on a CM5 Sensor Chip to a level of 2000 RU in acetate buffer at pH 4.5 using amine coupling following the Wizard instructions for two channels. One channel was used for background signal correction. The standard running buffer HBS-EP pH 7.4 was used. Regeneration was performed with a single injection of 10 μl of 10 mM Glycine at pH 1.5 at […]. IgG samples were injected for 2 minutes at 50 nM at 30 μl/min followed by an off-rate of 60 seconds. The monomeric antigen (human ERBB3 His tagged or rhesus monkey ERBB3 His tag) was injected in two fold serial dilutions from 3 nM down to 0.2 nM, for 2 minutes at 30 μl/min followed by an off-rate of 300 seconds. The obtained sensorgrams were analysed using the Biacore® 3000 evaluation (BlAevaluation) software. The KD was calculated by simultaneous fitting of the association and dissociation phases to a 1:1 Langmuir binding model.
(§2) Biacore® analyses of binding affinity were performed for all IgGs to solution-phase, monomeric human and rhesus ERBB3 proteins.

[2] = target: T2, human ERBB3 His tagged, monomeric (human, UniProt P21860 20-643, biotinylated in the Alphascreen assays (sites not given)); assay: as above
T2 construct: Used unbiotinylated as Biacore analyte and biotinylated in Alphascreen; treated as one molecule; also called human ERBB3-His (Acrobiosystems); biotinylated monomeric human ERBB3
Method: as §1, §2

[3] = target: T1, rhesus monkey ERBB3 His tag, monomeric; assay: SPR (Biacore)
Method: as §1

[4] = target: T2, human ERBB3 His tagged, monomeric; assay: SPR (Biacore)
Method: as §1

[5] = target: T3, rhesus ERBB3 on transiently transfected HEK-293 cells (rhesus monkey (Macaca mulatta), UniProt P21860 20-1342 (human entry)); assay: flow cytometry, rhesus ERBB3-transfected HEK-293
T3 construct: also called rhesus ERBB3+ HEK-293 cells
T3 chain: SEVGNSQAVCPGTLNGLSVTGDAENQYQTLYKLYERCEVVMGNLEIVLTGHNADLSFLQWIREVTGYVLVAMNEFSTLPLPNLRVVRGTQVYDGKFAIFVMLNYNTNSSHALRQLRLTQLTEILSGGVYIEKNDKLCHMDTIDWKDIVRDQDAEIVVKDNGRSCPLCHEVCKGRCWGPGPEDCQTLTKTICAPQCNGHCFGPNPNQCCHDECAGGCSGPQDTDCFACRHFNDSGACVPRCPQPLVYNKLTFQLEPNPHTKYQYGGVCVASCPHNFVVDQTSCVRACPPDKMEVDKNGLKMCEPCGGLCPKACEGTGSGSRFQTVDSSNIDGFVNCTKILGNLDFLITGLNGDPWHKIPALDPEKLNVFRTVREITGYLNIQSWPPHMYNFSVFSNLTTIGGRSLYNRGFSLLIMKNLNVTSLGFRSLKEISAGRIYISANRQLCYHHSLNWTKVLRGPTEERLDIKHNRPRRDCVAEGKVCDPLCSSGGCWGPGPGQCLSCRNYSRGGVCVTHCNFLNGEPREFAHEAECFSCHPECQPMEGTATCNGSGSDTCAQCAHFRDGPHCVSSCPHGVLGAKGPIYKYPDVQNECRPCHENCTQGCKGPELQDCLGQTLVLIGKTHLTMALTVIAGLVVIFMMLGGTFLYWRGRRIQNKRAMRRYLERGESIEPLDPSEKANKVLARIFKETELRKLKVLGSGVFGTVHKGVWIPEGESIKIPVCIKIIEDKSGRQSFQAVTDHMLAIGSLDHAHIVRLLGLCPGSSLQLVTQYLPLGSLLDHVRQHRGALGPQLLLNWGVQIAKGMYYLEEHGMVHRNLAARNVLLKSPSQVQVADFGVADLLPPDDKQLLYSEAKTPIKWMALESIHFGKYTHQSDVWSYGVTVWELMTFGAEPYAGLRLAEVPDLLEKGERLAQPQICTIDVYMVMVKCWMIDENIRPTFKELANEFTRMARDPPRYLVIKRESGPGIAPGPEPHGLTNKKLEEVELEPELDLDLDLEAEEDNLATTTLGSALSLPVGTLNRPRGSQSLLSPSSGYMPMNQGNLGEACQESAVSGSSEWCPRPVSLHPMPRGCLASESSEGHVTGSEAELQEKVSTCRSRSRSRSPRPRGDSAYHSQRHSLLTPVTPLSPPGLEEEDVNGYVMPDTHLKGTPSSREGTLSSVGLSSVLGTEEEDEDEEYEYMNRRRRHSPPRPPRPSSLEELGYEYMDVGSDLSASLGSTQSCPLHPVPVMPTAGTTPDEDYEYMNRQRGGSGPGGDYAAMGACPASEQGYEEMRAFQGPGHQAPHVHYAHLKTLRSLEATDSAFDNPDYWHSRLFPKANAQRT
Method: (§3) Purified IgGs were tested in FACs for binding to human and rhesus monkey ERBB3 expressed on transiently transfected HEK-293 cells and HEK-293 wild-type cells. The IgG samples were titrated in three-fold serial dilutions starting at 500 nM to 0.008 nM. Binding of IgGs was detected with a mouse anti-human IgG conjugated to FITC. Results were analyzed by examining the Mean Fluorescence Intensity (MFI) of 10000 cells per sample in the BL-1 channel detector of a flow cytometer (Attune™ NxT Acoustic Focusing Cytometer, Invitrogen/ThermoFisher Scientific).
(§4) Antibodies to ERBB3 were analysed for concentration-dependent binding at the cell surface via flow cytometry. HEK-293 cells were transiently transfected with either human or rhesus ERBB3 full-length cDNAs. Anti-ERBB3 IgGs and an isotype control were then all tested in IgG1null format, over a concentration range of 500-0.008 nM for binding to human (FIG. 5A) and rhesus (FIG. 5B) transfected cells.

[6] = target: T4, human ERBB3 on transiently transfected HEK-293 cells (human, UniProt P21860 20-1342); assay: flow cytometry, human ERBB3-transfected HEK-293
T4 construct: also called human ERBB3+ HEK-293 cells
Method: as §3, §4

[7] = target: T3, rhesus ERBB3 on transiently transfected …; assay: flow cytometry, rhesus ERBB3-transfected HEK-293 cells, IgG1 titrated
Method: as §3

[8] = target: T5, human insulin (human, UniProt P01308 25-54; P01308 90-110, limits assumed); assay: polyreactivity ELISA on human insulin, score
T5 construct: Off-target protein in the development risk (polyreactivity) ELISA

[9] = target: T6, human ERBB3 human Fc tagged recombinant protein (human, UniProt P21860 20-643); assay: direct binding ELISA on coated human ERBB3-Fc, IgG1 titrated
T6 construct: also called human ERBB3-Fc; huERBB3
Method: (§5) Binding and cross-reactivity of the lead panel to the recombinant proteins was initially assessed by binding ELISA. The human ERBB3 human Fc tagged recombinant protein and the rhesus monkey ERBB3 human Fc tagged recombinant protein were coated to the surface of MaxiSorp™ flat-bottom 96 well plate at 1 μg/ml. The purified IgG samples were titrated in two fold serial dilutions starting from 500 nM to 0.008 nM and allowed to bind to the coated antigens. The Fabs were detected using mouse anti-c-myc antibody followed by donkey anti-mouse IgG conjugated to horseradish peroxidase. The IgGs were detected using the mouse anti-human IgG conjugated to horseradish peroxidase. Binding signals were visualized with 3,3′,5,5′-Tetramethylbenzidine Substrate Solution (TMB) and the absorbance measured at 450 nm.

[10] = target: T7, rhesus monkey ERBB3 human Fc tagged recombinant protein (rhesus monkey (Macaca mulatta), UniProt P21860 20-643 (human entry), limits assumed); assay: direct binding ELISA on coated rhesus ERBB3-Fc, IgG1 titrated
T7 construct: also called rhesus ERBB3-Fc; rhERBB3
T7 chain: T1 chain
Method: as §5

[11] = target: T2, human ERBB3 His tagged, monomeric; assay: Alphascreen competition, solution phase; competitor h24C05 IgG1

T5 sequence (P01308 25-54 limits assumed, chain 1 of 2): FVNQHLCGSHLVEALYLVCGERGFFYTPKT
T5 sequence (P01308 90-110 limits assumed, chain 2 of 2): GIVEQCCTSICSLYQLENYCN

Kd [1]: 0.63 nM
koff [1]: 0.011 s⁻¹
kon [1]: 1.8e+07 M⁻¹ s⁻¹
Kd [2]: 0.85 nM
koff [2]: 0.0065 s⁻¹
kon [2]: 7.6e+06 M⁻¹ s⁻¹
fold reduction in binding affinity against clone MH2 [3]: ~3 fold
fold reduction in binding affinity against clone MH2 [4]: ~3 fold
maximum MFI, fold over isotype control background [5]: > 20 fold
maximum MFI, fold over isotype control background [6]: > 20 fold
B1: MH3 IgG1null (antibody, V domains shown)
VH: QVQLVESGGGLVKPGGSLRLSCAASGFTFSDYSMSWIRQAPGKGLEWVSTISDSGSTIYYADSVKGRFTISRDNAKNSLYLQMNSLRAEDTAVYYCAREWGDYDGFDFWGQGTLVTVSS
VL: DIQMTQSPSSLSASVGDRVTITCRASQSISSYLSWYQQKPGKAPKLLIYAASSLQSGVPSRFSGSGSGTDFTLTISSLQPEDFATYYCLQYDSTPLTFGGGTKVEIK
notes: Designer (Maximally Humanized) clone; Human IgG1null and human Ckappa

EC50 (read off the curve) [7]: ~0.2 nM
binding result [8]: no binding
EC50 (read off the curve) [9]: ~0.1 nM
EC50 (read off the curve) [10]: ~0.1 nM
IC50 [11]: 1.25 nM
B2: h24C05 IgG1 (antibody, V domains shown)
VH: B1 VH with S33A, S54G, S56T, T57Y, I58T, A61P, S63N, F108Y
VL: B1 VL with S28E, S31G, Y36F, L46S, S53T, Q55D, T94Y, L96Y
notes: Human IgG1 and human Ckappa; also called humanized 24C05
